Laboratory results published in US20110039801A1.

Molecular target: human NK1 receptor (transiently expressed in HEK293 cells) (human) (UniProt P25103)
Test: cell-based or functional assay

Sequence of UniProt P25103 (P25103 whole entry): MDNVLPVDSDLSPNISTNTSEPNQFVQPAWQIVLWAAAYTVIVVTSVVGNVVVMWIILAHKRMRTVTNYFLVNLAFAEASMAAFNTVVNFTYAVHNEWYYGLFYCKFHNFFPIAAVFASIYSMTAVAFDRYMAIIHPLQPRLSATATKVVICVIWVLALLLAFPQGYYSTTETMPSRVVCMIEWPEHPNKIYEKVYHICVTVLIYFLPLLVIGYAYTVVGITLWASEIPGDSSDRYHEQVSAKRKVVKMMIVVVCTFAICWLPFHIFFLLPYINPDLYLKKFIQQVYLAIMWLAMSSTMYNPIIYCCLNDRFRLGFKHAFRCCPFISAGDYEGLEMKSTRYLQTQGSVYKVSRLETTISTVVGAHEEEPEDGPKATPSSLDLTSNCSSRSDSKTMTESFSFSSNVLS

Question: With “SPANTIDE II (peptidic analog of substance P) (peptide)” as the sequence, how does the NK1 receptor antagonistic activity (calcium imaging, inhibition of the substance P (100 µM) induced rise in fluorescence) read?
Answer: 65%
